Test results from doi:10.1101/340026.
Like-named read-outs stand apart in the source and are kept apart here. Each block holds one molecule with its values, some of them ahead of it.

How the values were obtained:
[1] = target: soluble porcine αβ-tubulin (porcine) (UniProt P02550); assay: ITC
[2] = target: soluble porcine αβ-tubulin (porcine) (UniProt P02550); assay: SEC + SEC-MALS
[3] = target: soluble porcine αβ-tubulin (porcine) (UniProt P02550); assay: SEC + SEC-MALS; remark: listed apart in the source
[4] = target: αβ-tubulin:DRP complex (1:1 molar ratio) (porcine) (UniProt P02550); assay: ITC
[5] = target: αβ-tubulin:DRP complex (1:1 molar ratio) (porcine) (UniProt P02550); assay: ITC; remark: listed apart in the source

Kd [1]: 461 nM
Molecule: DRP with the N-terminal ankyrin repeat removed (DRPΔN) (designed binder)

Kd [1]: 149 nM
stoichiometry N [2]: 1
Molecule: designer ankyrin repeat protein, Darpin-D1 (DRP) (designed binder)

stoichiometry N [3]: 2
stoichiometry N [2]: 2
B1: monomeric S. pombe Alp14 TOG1-TOG2 array (residues 1-510) (domain or fragment)
chain: MSQDQEEDYSKLPLESRIVHKVWKVRLSAYEECSKSFSLSADGSDNCFELWNNQSELWKSVLTDSNVAAQEAGTAAFVAYCRFSDPSHLLKAREISVLSISEKCLTSPRAGTRENALEALMLLVEADSAAPVIESIIPSLSARSPKVIASNVAAIASLVEQFGAKVIPSKMIIPHISNLFGHADKNVRKEASRLTVNIYRWTGDPLKDLLFKDLRPVQTKELESLFAELPTEPPKQTRFLKSQQPTSEPNVETQVEEQPALENEESEPEPSDDQFDLVEEVDVLPNVDPNLETLMASSKWKDRKEALDKLLPVLSQPKIKDNDFFNLVAILTKSVSKDANIMVVINAAHCIQAMAKGLRSNFSKYASTSINALLERSKEKKANVIESLSSAMDAVLATSSLDDLAELIASFAGNKNPQIKSSCFSLFSRSFSNMTSLPSKFTVDTCAKACVPGVSDTFEPVRSAAAEALGVLMKLVGERAINQYLSPLDDIRKSKIRSFYETATVKAKAP

Kd [4]: 1500 nM
Kd [5]: 70 nM
B2: isolated TOG1 (residues 1-270) (domain or fragment)
chain: MSQDQEEDYSKLPLESRIVHKVWKVRLSAYEECSKSFSLSADGSDNCFELWNNQSELWKSVLTDSNVAAQEAGTAAFVAYCRFSDPSHLLKAREISVLSISEKCLTSPRAGTRENALEALMLLVEADSAAPVIESIIPSLSARSPKVIASNVAAIASLVEQFGAKVIPSKMIIPHISNLFGHADKNVRKEASRLTVNIYRWTGDPLKDLLFKDLRPVQTKELESLFAELPTEPPKQTRFLKSQQPTSEPNVETQVEEQPALENEESEPEP

stoichiometry N [3]: 4
stoichiometry N [2]: 4
B3: dimeric S. pombe Alp14 TOG array (residues 1-690) (domain or fragment)
chain: MSQDQEEDYSKLPLESRIVHKVWKVRLSAYEECSKSFSLSADGSDNCFELWNNQSELWKSVLTDSNVAAQEAGTAAFVAYCRFSDPSHLLKAREISVLSISEKCLTSPRAGTRENALEALMLLVEADSAAPVIESIIPSLSARSPKVIASNVAAIASLVEQFGAKVIPSKMIIPHISNLFGHADKNVRKEASRLTVNIYRWTGDPLKDLLFKDLRPVQTKELESLFAELPTEPPKQTRFLKSQQPTSEPNVETQVEEQPALENEESEPEPSDDQFDLVEEVDVLPNVDPNLETLMASSKWKDRKEALDKLLPVLSQPKIKDNDFFNLVAILTKSVSKDANIMVVINAAHCIQAMAKGLRSNFSKYASTSINALLERSKEKKANVIESLSSAMDAVLATSSLDDLAELIASFAGNKNPQIKSSCFSLFSRSFSNMTSLPSKFTVDTCAKACVPGVSDTFEPVRSAAAEALGVLMKLVGERAINQYLSPLDDIRKSKIRSFYETATVKAKAPTKKSKVKPSKQEESKVVVPSNAKAVKKSVVPSSPVVPSPRKATNKSLSMDVSKGNAFENGPLLPRPTTRPVSRGLSRGTSSSLQQKVKASTPLNSGALNETVQNLKNMELDDPAPQPAKHSRVDRYEHPKVLEDNDSTISSLESLKRENEELREQLKVEHEENISMQKQLSELKGELNTL

Kd [4]: 3250 nM
Kd [5]: 173 nM
B4: isolated TOG2 (residues 320-510) (domain or fragment)
chain: KDNDFFNLVAILTKSVSKDANIMVVINAAHCIQAMAKGLRSNFSKYASTSINALLERSKEKKANVIESLSSAMDAVLATSSLDDLAELIASFAGNKNPQIKSSCFSLFSRSFSNMTSLPSKFTVDTCAKACVPGVSDTFEPVRSAAAEALGVLMKLVGERAINQYLSPLDDIRKSKIRSFYETATVKAKAP
